According to US20260234276A1 (DOMAIN THERAPEUTICS, published 2026):
Several values for one entry are separate records, joined by “and”; a condition that tells them apart may be missing. Identical values can stand only once.

Columns and labels:
human CCR8 [1] = biological target: T1, human CCR8 (human, UniProt P51685 1-355); test: flow cytometry, hCCR8 transfected CHOK1 cells
T1 construct: the cells are named under assay; also called hCCR8

pm5 [2] = biological target: T2, pm5 (human, sulfated tyrosines at Y15 and Y17); test: ELISA on coated peptide
Experimental: (§1) The specific binding properties of antibodies were evaluated by ELISA with coated CCR8 related peptides (500 ng/mL) in carbonate/bicarbonate buffer. Different peptides were used as described in Table 1 (see Example 1). Each anti-CCR8 mAb was tested at 1 μg/mL then diluted at 1/10. After an incubation at room temperature during 90 min, unbound mAbs were removed by washings. […] After washings, 3,3′,5,5′-tetramethylbenzidine (TMB) (Interchim, Montlugon, France) was added for 15 min. Then the optical density (OD) was determined by using a multiplate reader (Tecan, Lyon, France) and correlated with mAb reactivity on the panel of coated peptides.

pm8 [3] = biological target: T3, pm8 (human, sulfated tyrosines at Y15, Y16 and Y17); test: ELISA on coated peptide
Experimental: as §1

pm6 [4] = biological target: T4, pm6 (human, sulfated tyrosines at Y16 and Y17); test: ELISA on coated peptide
Experimental: as §1

pm3 [5] = biological target: T5, pm3 (human, sulfated tyrosine at Y17); test: ELISA on coated peptide
Experimental: as §1

human CCR8 [6] = biological target: T1, human CCR8; test: cell-based or functional assay
pm5 [7] = biological target: T2, pm5; test: ELISA on coated peptide [cont.]
Summary of the method: (§2)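 In this direct ELISA, CCR8-related peptides coated at 500 ng/mL are probed with anti-CCR8 mAbs (1 μg/mL, also 1/10 dilution; 90 min, room temperature). Read-out is TMB optical density.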

pm8 [8] = biological target: T3, pm8; test: ELISA on coated peptide [cont.]
Summary of the method: as §2

pm6 [9] = biological target: T4, pm6; test: ELISA on coated peptide [cont.]
Summary of the method: as §2

pm3 [10] = biological target: T5, pm3; test: ELISA on coated peptide [cont.]
Summary of the method: as §2

human CCR8 [11] = biological target: T1, human CCR8; test: cell-based or functional assay; remark: listed apart in the source
human CCR8 [12] = biological target: T1, human CCR8; test: cell-based or functional assay; remark: listed apart in the source
human CCR8 [13] = biological target: T1, human CCR8; test: cell-based or functional assay; remark: listed apart in the source
human CCR8 [14] = biological target: T1, human CCR8; test: competition HTRF on HEK-293 cells with hCCR8; blocked ligand CCL1-AF647 [cont.]
human CCR8 [15] = biological target: T1, human CCR8; test: flow cytometry, HUT78 cells (native CCR8)
Experimental: The same staining protocol was applied on human CCR8 transfected CHO cell line versus wild type CHO cell line, cutaneous T cell lymphoma HUT78 cell line and human activated T cell model.
Briefly, 1·10⁵ cells per well in a 96 well plate were incubated with a dilution of unconjugated anti-CCR8 mAb at 10 μg/mL then diluted at 1/3.33, 4 dilution points (during 30 min at 4° C.). […] To determine EC50 value, 8 concentrations of anti-CCR8 mAb were tested. Unbound antibodies were washed away with PBS (Invitrogen by Thermofisher Scientific, Illkirch-Graffenstaden, France) supplemented by 2% Fetal Bovine Serum (Invitrogen by Thermofisher Scientific, Illkirch-Graffenstaden, France) and 2 mM EDTA (Invitrogen by Thermofisher Scientific, Illkirch-Graffenstaden, France). Subsequently, cells are centrifuged (5 min at 400 g) and bound antibody is detected with F(ab′)₂-Goat anti-Mouse IgG (H+L) Cross-Adsorbed Secondary Antibody, Alexa Fluor 488 (dilution 1/500) (Invitrogen by Thermofisher Scientific, Illkirch-Graffenstaden, France) or with F(ab′)₂-Goat anti-Human IgG Fc Secondary Antibody, PE (Invitrogen by Thermofisher Scientific, Illkirch-Graffenstaden, France) (dilution 1/1000) at 4° C. for 30 min. Detection reagent is washed away and cells are centrifuged (5 min at 400 g) and resuspended in 30 μL PBS. Bound detection antibody is quantified on a MacsQuant16 (Miltenyi, Gladbach, Germany) (B1 or B2 channel, 5000 events per acquisition).

pm1 = pm1 (human, sulfated tyrosine(s) among Tyr 15, Tyr 16, Tyr 17; marked only by underlining, lost in the text); test: ELISA on coated peptide
Experimental: as §1

pm4 = pm4 (human, sulfated tyrosine(s) among Tyr 15, Tyr 16, Tyr 17; marked only by underlining, lost in the text); test: ELISA on coated peptide
Experimental: as §1

pm2 = pm2 (human, sulfated tyrosine(s) among Tyr 15, Tyr 16, Tyr 17; marked only by underlining, lost in the text); test: ELISA on coated peptide
Experimental: as §1

human CCR8 [16] = biological target: T1, human CCR8; test: cell-based or functional assay; remark: listed apart in the source

T3 sequence (peptide, as listed by the source): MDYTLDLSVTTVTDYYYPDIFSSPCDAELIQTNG
T4 sequence (peptide, as listed by the source): as above
T5 sequence (peptide, as listed by the source): as above
T2 sequence (peptide, as listed by the source): as above
Chain of pm2 (human, sulfated tyrosine(s) among Tyr 15, Tyr 16, Tyr 17; marked only by underlining, lost in the text) (peptide, as listed by the source): as above
Chain of pm4 (human, sulfated tyrosine(s) among Tyr 15, Tyr 16, Tyr 17; marked only by underlining, lost in the text) (peptide, as listed by the source): as above
Chain of pm1 (human, sulfated tyrosine(s) among Tyr 15, Tyr 16, Tyr 17; marked only by underlining, lost in the text) (peptide, as listed by the source): as above

| Binder | % positive cells (human CCR8 [1]) [%] | MFI fold change to isotype ctrl (human CCR8 [1]) [fold] | hCCL1 (100 nM) residual response, Protocol #2, mAb 0.08 µg/mL (human CCR8 [6]) [%] | hCCL1 (100 nM) residual response, Protocol #2, mAb 0.4 µg/mL (human CCR8 [6]) [%] | hCCL1 (100 nM) residual response, Protocol #2, mAb 10 µg/mL (human CCR8 [6]) [%] | hCCL1 (100 nM) residual response, Protocol #3, mAb 0.05 µg/mL (human CCR8 [6]) [%] | hCCL1 (100 nM) residual response, Protocol #3, mAb 0.5 µg/mL (human CCR8 [6]) [%] | hCCL1 (100 nM) residual response, Protocol #3, mAb 5 µg/mL (human CCR8 [6]) [%] | binding result (pm5 [7]) | binding result (pm8 [8]) | binding result (pm6 [9]) | binding result (pm3 [10]) | IC50 (Gi2 BRET, pH 6.5) (human CCR8 [11]) | IC50 (Gi2 BRET, pH 7.4) (human CCR8 [11]) | ADCC % Max lysis, NK cells Donor 1 (human CCR8 [13]) [%] | ADCC % Max lysis, NK cells Donor 2 (human CCR8 [13]) [%] | ADCC EC50, NK cells Donor 1 (human CCR8 [13]) [pM] | ADCC EC50, NK cells Donor 2 (human CCR8 [13]) [pM] | ADCP % Max of phagocytosis, monocyte-derived macrophages Donor 9 (human CCR8 [16]) [%] | also measured |
| --- | --- | --- | --- | --- | --- | --- | --- | --- | --- | --- | --- | --- | --- | --- | --- | --- | --- | --- | --- | --- |
| 3-2 (antibody, V domains shown) VH: EVQLVESGGGLVKPGGSLKLSCAASGFTFSSYAMSWVRQTPEKRLEWVATINSGGSYTFYPDSVKGRFTISRDNAKNTLYLQMSSLRSVDTAIYYCARVSGYDERFAYWGQGTLVTVSA VL: DVLMTQTPLSLPVSLGAQASISCRSSQSIVHSNGNTYLEWYLQKPGQSPKLLIYKVSNRFSGVPDRFSGSGSGTDFTLKLSRVEAEDLGVYYCFQGSHVPPTFGGGTKLEIK | 51.2 | 3.41 |  |  |  |  |  |  |  |  |  |  |  |  |  |  |  |  |  | binding result (pm5 [2]): binds; binding result (pm8 [3]): binds; binding result (pm6 [4]): binds; binding result (pm3 [5]): binds |
| 3-78 (antibody, human IgG1, kappa, humanized) heavy: not shown light: DIVMTQAAPSLSVTPGESASISCTSSKSLLHSNGNTYLYWFLQKPGQSPQLLIYRMSNLASGVPDRFSGSGSGTAFTLKISRVEAEDVGVYYCMQHREYPFTFGSGTKLEIKRTVAAPSVFIFPPSDEQLKSGTASVVCLLNNFYPREAKVQWKVDNALQSGNSQESVTEQDSKDSTYSLSSTLTLSKADYEKHKVYACEVTHQGLSSPVTKSFNRGEC |  |  | 74 | 54 | 40 | 89 | 63 | 51 | binds | binds | binds | binds | 0.025 µg/ml and 0.165 nM | 0.035 µg/ml and 0.232 nM | 30 | 28 | 6.43 | 0.42 | 9.65 | IC50 (read off the curve) (human CCR8 [14]): ~0.1 µg/mL; % of labelled cells (human CCR8 [15]): 32%; binding result (pm1): binds; binding result (pm4): binds; binding result (pm2): binds |
| 3-83 (antibody) heavy: not shown light: DIVMTQAAPSLSVTPGESASISCTSSKSLLHSNGNTYLYWFLQKPGQSPQLLIYRMSNLASGVPDRFSGSGSGTAFTLKISRVEAEDVGVYYCMQHREYPFTFGSGTKLEIKRTVAAPSVFIFPPSDEQLKSGTASVVCLLNNFYPREAKVQWKVDNALQSGNSQESVTEQDSKDSTYSLSSTLTLSKADYEKHKVYACEVTHQGLSSPVTKSFNRGEC |  |  |  |  |  |  |  |  |  |  |  |  |  |  | 22 | 20 | 2.24 | 2.16 | 8.29 | % of labelled cells (human CCR8 [15]): 34%; EC50 (human CCR8 [15]): 400 pM |
| 3-76 (antibody, human IgG1, kappa, V domains shown, humanized, human IgG1 kappa) VH: EVQLVESGGGLVQPGRSLRLSCTASGFTFNTYAMNWVRQAPGKGLEWVARIRSKSNNYATYYAASVKGRFTISRDDSKSIAYLQMNSLKTEDTAVYYCVRGREAYYRYDGGYYAMDVWGQGTTVTVSS VL: DIVMTQAAPSLPVTPGESASISCRSSKSLLHSNGNTYLYWFLQKPGQSPQLLIYRMSNLASGVPDRFSGSGSGTAFTLKISRVEAEDVGVYYCMQHLEYPFTFGSGTKLEIKR |  |  | 88 | 82 | 64 | 88 | 71 | 70 | binds | binds | binds | binds | 0.024 µg/ml and 0.157 nM | 0.048 µg/ml and 0.318 nM |  |  |  |  |  | IC50 (read off the curve) (human CCR8 [14]): ~0.02 µg/mL |

Second part, led by results:

| % positive cells (human CCR8 [1]) [%] | MFI fold change to isotype ctrl (human CCR8 [1]) [fold] | hCCL1 (100 nM) residual response, Protocol #2, mAb 0.08 µg/mL (human CCR8 [6]) [%] | hCCL1 (100 nM) residual response, Protocol #2, mAb 0.4 µg/mL (human CCR8 [6]) [%] | hCCL1 (100 nM) residual response, Protocol #2, mAb 10 µg/mL (human CCR8 [6]) [%] | hCCL1 (100 nM) residual response, Protocol #3, mAb 0.05 µg/mL (human CCR8 [6]) [%] | hCCL1 (100 nM) residual response, Protocol #3, mAb 0.5 µg/mL (human CCR8 [6]) [%] | hCCL1 (100 nM) residual response, Protocol #3, mAb 5 µg/mL (human CCR8 [6]) [%] | binding result (pm5 [7]) | binding result (pm8 [8]) | binding result (pm6 [9]) | binding result (pm3 [10]) | IC50 (Gi2 BRET, pH 6.5) (human CCR8 [11]) | IC50 (Gi2 BRET, pH 7.4) (human CCR8 [11]) | ADCC % Max lysis, NK cells Donor 1 (human CCR8 [13]) [%] | ADCC % Max lysis, NK cells Donor 2 (human CCR8 [13]) [%] | ADCC EC50, NK cells Donor 1 (human CCR8 [13]) [pM] | ADCC EC50, NK cells Donor 2 (human CCR8 [13]) [pM] | ADCP % Max of phagocytosis, monocyte-derived macrophages Donor 9 (human CCR8 [16]) [%] | Binder | also measured |
| --- | --- | --- | --- | --- | --- | --- | --- | --- | --- | --- | --- | --- | --- | --- | --- | --- | --- | --- | --- | --- |
| 85.2 | 11.9 | 99 | 97 | 97 | 99 | 84 | 75 | binds | binds | binds | binds | 0.414 µg/ml and 2.76 nM | 0.359 µg/ml and 2.4 nM |  |  |  |  |  | 3-21 (antibody, V domains shown) VH: QVQLKESGPGLVAPSQSLSITCTVSGLSMNDYVVTWIRQPPGKGLEWLGVIWGGGNTYYNSDLKSRLSITKDNSKSQVFFKMSSLQTDDTAVYYCARRHRDYALDYWGQGISVTVSS VL: DVVMTQTPLSLPVSLGDQASISCRSSQSLVYSNGNTYLHWYLQKPGQSPKLLIYKVSNRFSGVPDRFSGSGSGTDFTLKISRVEAEDLGVYFCSQSTYVPPTFGGGTKLEIK | Top plateau value (% of hCCL1 100 nM) with 5 µg/mL mAb, Protocol #3 (human CCR8 [12]): 133% |
|  |  |  |  |  |  |  |  |  |  |  |  |  |  | 31 | 26 | 73.3 | 90.4 | 7.27 | 3-85 (antibody) heavy: not shown light: DIVMTQAAPSVSVTPGESVSISCTSSKSLLHSNGNTYLYWFLQRPGQSPQLLIYRMSNLASGVPDRFSGSGSGTAFTLRISRVEAEDVGVYYCMQHREYPFTFGSGTKLEIKRTVAAPSVFIFPPSDEQLKSGTASVVCLLNNFYPREAKVQWKVDNALQSGNSQESVTEQDSKDSTYSLSSTLTLSKADYEKHKVYACEVTHQGLSSPVTKSFNRGEC |  |
| 38.8 | 2.61 |  |  |  |  |  |  |  |  |  |  | > 4.5 µg/ml and > 30 nM | > 4.5 µg/ml and > 30 nM |  |  |  |  |  | 3-1 (antibody, V domains shown) VH: EVQLVETGGGLVQPKGSLKVSCAASGFTFNTNAMNWVRQAPGKGLEWVARIRSKSNNYATYYADSVKDRFIISRDDSQSMLYLQMNNLKTEDTAMYYCVRGGYYGTSVYFDVWGAGTTVTVSS VL: DIVMTQAAPSVPVTPGESVSISCRSSKSLLHSNGNTYLYWFLQRPGQSPQLLIYRMSNLASGVPDRFSGSGSGTAFTLRISRVEAEDVGVYYCMQHLEYPFTFGGGTKLEIK | binding result (pm5 [2]): binds; binding result (pm8 [3]): binds; binding result (pm6 [4]): binds; binding result (pm3 [5]): binds |
